Numbering of substitutions follows the chain as printed. Names and notes keep the numbering of the source.
B1: FIXa-Y155F/R318Y/R338E/N346D/R403E/E410N (protein)
chain 1: YNSGKLEEFVQGNLERECMEEKCSFEEAREVFENTERTTEFWKQYVDGDQCESNPCLNGGSCKDDINSYECWCPFGFEGKNCELDVTCNIKNGRCEQFCKNSADNKVVCSCTEGYRLAENQKSCEPAVPFPCGRVSVSQTSKLTR
chain 2: VVGGEDAKPGQFPWQVVLNGKVDAFCGGSIVNEKWIVTAAHCVETGVKITVVAGEHNIEETEHTEQKRNVIRIIPHHNYNAAINKYNHDIALLELDEPLVLNSYVTPICIADKEYTNIFLKFGSGYVSGWGRVFHKGYSALVLQYLRVPLVDRATCLESTKFTIYDNMFCAGFHEGGRDSCQGDSGGPHVTEVEGTSFLTGIISWGEECAMKGKYGIYTKVSEYVNWIKNKTKLT
B2: FIXa-K247N/N249S/N260S (protein)
chain 1: B1 chain 1
chain 2: B1 chain 2 with K67N, N69S, N80S, Y138R, E158R, D166N, E223R, N230E
B3: FIXa-Y155F/K247N/N249S/N260S (protein)
chain 1: B1 chain 1
chain 2: B1 chain 2 with K67N, N69S, N80S, Y138R, E158R, D166N, E223R, N230E
B4: FIXa-D104N/K106S/K247N/N249S/N260S (protein)
chain 1: B1 chain 1 with D104N, K106S
chain 2: B1 chain 2 with K67N, N69S, N80S, Y138R, E158R, D166N, E223R, N230E
B5: FIXa-D104N/K106S/Y155F/K247N/N249S/N260S (protein)
chain 1: B1 chain 1 with D104N, K106S
chain 2: B1 chain 2 with K67N, N69S, N80S, Y138R, E158R, D166N, E223R, N230E
B6: FIXa-K247N/N249S/N260S/R318Y/R338E/R403E/E410N (protein)
chain 1: B1 chain 1
chain 2: B1 chain 2 with K67N, N69S, N80S, D166N
B7: FIXa-R318Y/R338E/N346Y/R403E/E410N (protein)
chain 1: B1 chain 1
chain 2: B1 chain 2 with D166Y
B8: FIXa-R318Y/R338E/T343R/N346Y/R403E/E410N (protein)
chain 1: B1 chain 1
chain 2: B1 chain 2 with T163R, D166Y
B9: FIXa-R318Y/R338E/T343R/N346D/R403E/E410N (protein)
chain 1: B1 chain 1
chain 2: B1 chain 2 with T163R
B10: FIXa-R318Y/R338E/Y345A/R403E/E410N (protein)
chain 1: B1 chain 1
chain 2: B1 chain 2 with Y165A, D166N
B11: FIXa-R318Y/R338E/Y345A/N346D/R403E/E410N (protein)
chain 1: B1 chain 1
chain 2: B1 chain 2 with Y165A
B12: FIXa K228N/K247N/N249S/R318Y/R338E/R403E/E410N (protein)
chain 1: B1 chain 1
chain 2: B1 chain 2 with K48N, K67N, N69S, D166N
B13: FIXa R318Y/R338E/R403E/E410N/T412V (protein)
chain 1: B1 chain 1
chain 2: B1 chain 2 with D166N, T232V
B14: FIXa R318Y/R338E/R403E/E410N/T412A (protein)
chain 1: B1 chain 1
chain 2: B1 chain 2 with D166N, T232A
B15: FIXa D85N/K228N/R318Y/R338E/R403E/E410N (protein)
chain 1: B1 chain 1 with D85N
chain 2: B1 chain 2 with K48N, D166N
B16: FIXa I251S/R318Y/R338E/R403E/E410N (protein)
chain 1: B1 chain 1
chain 2: B1 chain 2 with I71S, D166N
B17: FIXa D104N/K106S/I251S/R318Y/R338E/R403E/E410N (protein)
chain 1: B1 chain 1 with D104N, K106S
chain 2: B1 chain 2 with I71S, D166N
B18: FIXa Y155F/I251S/R318Y/R338E/R403E/E410N (protein)
chain 1: B1 chain 1
chain 2: B1 chain 2 with I71S, D166N
B19: FIXa I251S/R318Y/R338E/E410N (protein)
chain 1: B1 chain 1
chain 2: B1 chain 2 with I71S, D166N, E223R
B20: FIXa D104N/K106S/I251S/R318Y/R338E/E410N (protein)
chain 1: B1 chain 1 with D104N, K106S
chain 2: B1 chain 2 with I71S, D166N, E223R
B21: FIXa K247N/N249S/R318Y/R338E/R403E/E410N (protein)
chain 1: B1 chain 1
chain 2: B1 chain 2 with K67N, N69S, D166N
B22: FIXa Y155F/K247N/N249S/R318Y/R338E/R403E/E410N (protein)
chain 1: B1 chain 1
chain 2: B1 chain 2 with K67N, N69S, D166N
B23: FIXa A103N/N105S/K247N/N249S/R318Y/R338E/R403E/E410N (protein)
chain 1: B1 chain 1 with A103N, N105S
chain 2: B1 chain 2 with K67N, N69S, D166N
B24: FIXa D104N/K106S/K247N/N249S/R318Y/R338E/R403E/E410N (protein)
chain 1: B1 chain 1 with D104N, K106S
chain 2: B1 chain 2 with K67N, N69S, D166N
B25: FIXa K247N/N249S/R318Y/R338E/E410N (protein)
chain 1: B1 chain 1
chain 2: B1 chain 2 with K67N, N69S, D166N, E223R
B26: FIXa Y155F/K247N/N249S/R318Y/R338E/E410N (protein)
chain 1: B1 chain 1
chain 2: B1 chain 2 with K67N, N69S, D166N, E223R
B27: FIXa R318Y/R338E/R403E/E410S (protein)
chain 1: B1 chain 1
chain 2: B1 chain 2 with D166N, N230S
B28: FIXa R318Y/R338E/E410S (protein)
chain 1: B1 chain 1
chain 2: B1 chain 2 with D166N, E223R, N230S
B29: FIXa K228N/K247N/N249S (protein)
chain 1: B1 chain 1
chain 2: B1 chain 2 with K48N, K67N, N69S, Y138R, E158R, D166N, E223R, N230E
B30: FIXa D104N/K106S/Y155F/K228N/K247N/N249S (protein)
chain 1: B1 chain 1 with D104N, K106S
chain 2: B1 chain 2 with K48N, K67N, N69S, Y138R, E158R, D166N, E223R, N230E
B31: FIXa D104N/K106S/K228N/K247N/N249S (protein)
chain 1: B1 chain 1 with D104N, K106S
chain 2: B1 chain 2 with K48N, K67N, N69S, Y138R, E158R, D166N, E223R, N230E
B32: FIXa Y155F/K228N/K247N/N249S (protein)
chain 1: B1 chain 1
chain 2: B1 chain 2 with K48N, K67N, N69S, Y138R, E158R, D166N, E223R, N230E
B33: FIXa R318Y/R338E/R403E/T412A (protein)
chain 1: B1 chain 1
chain 2: B1 chain 2 with D166N, N230E, T232A
B34: FIXa R318Y/R338E/T412A (protein)
chain 1: B1 chain 1
chain 2: B1 chain 2 with D166N, E223R, N230E, T232A
B35: FIXa R318Y/R338E/E410N/T412V (protein)
chain 1: B1 chain 1
chain 2: B1 chain 2 with D166N, E223R, T232V
B36: FIXa N260S/R318Y/R338E/R403E/E410N (protein)
chain 1: B1 chain 1
chain 2: B1 chain 2 with N80S, D166N
B37: FIXa D104N/K106S/N260S/R318Y/R338E/R403E/E410N (protein)
chain 1: B1 chain 1 with D104N, K106S
chain 2: B1 chain 2 with N80S, D166N
B38: FIXa Y155F/N260S/R318Y/R338E/R403E/E410N (protein)
chain 1: B1 chain 1
chain 2: B1 chain 2 with N80S, D166N
B39: FIXa R318Y/R338E/N346D/R403E/E410N (protein)
chain 1: B1 chain 1
chain 2: B1 chain 2

These proteins were tested against Antithrombin III (plasma purified human AT-III, Molecular Innovations), as AT-III/UFH complex.
In the case of B1, the K0.5-mut/K0.5-wt (against Catalyst Biosciences WT FIXa) is reported as > 517. In the case of B2, the K0.5-mut/K0.5-wt (against Catalyst Biosciences WT FIXa) is reported as 8.1. B3 showed a K0.5-mut/K0.5-wt (against Catalyst Biosciences WT FIXa) of 7.9. In the case of B4, the K0.5-mut/K0.5-wt (against Catalyst Biosciences WT FIXa) is reported as 65.3. B5 showed a K0.5-mut/K0.5-wt (against Catalyst Biosciences WT FIXa) of 35.8. For B6, the K0.5-mut/K0.5-wt (against Catalyst Biosciences WT FIXa) was 288. In the case of B7, the K0.5-mut/K0.5-wt (against Catalyst Biosciences WT FIXa) is reported as > 517. For B8, the K0.5-mut/K0.5-wt (against Catalyst Biosciences WT FIXa) was > 517. For B9, the K0.5-mut/K0.5-wt (against Catalyst Biosciences WT FIXa) was > 517. B10 was tested, and the K0.5-mut/K0.5-wt (against Catalyst Biosciences WT FIXa) was > 517. For B11, the K0.5-mut/K0.5-wt (against Catalyst Biosciences WT FIXa) was > 517.

What follows are proteins tested against plasma purified human antithrombin III (AT-III) in complex with full-length unfractionated heparin (UFH).
B12 was tested, and the K0.5-mut/K0.5-wt was > 517 fold. With B13 the K0.5-mut/K0.5-wt was > 517 fold. B14 was tested, and the K0.5-mut/K0.5-wt was > 517 fold. B15 was tested, and the K0.5-mut/K0.5-wt was > 517 fold. B16 was tested, and the K0.5-mut/K0.5-wt was > 517 fold. With B17 the K0.5-mut/K0.5-wt was > 517 fold. B18 was tested, and the K0.5-mut/K0.5-wt was > 517 fold. Work on B19 yielded a K0.5-mut/K0.5-wt of 303 fold. B20 was tested, and the K0.5-mut/K0.5-wt was 464 fold. Work on B21 yielded a K0.5-mut/K0.5-wt of 418 fold. For B22, the K0.5-mut/K0.5-wt was > 517 fold. Work on B23 yielded a K0.5-mut/K0.5-wt of 129 fold. With B24 the K0.5-mut/K0.5-wt was > 517 fold. For B25, the K0.5-mut/K0.5-wt was 78.3 fold. With B26 the K0.5-mut/K0.5-wt was 200 fold. For B27, the K0.5-mut/K0.5-wt was > 517 fold. Work on B28 yielded a K0.5-mut/K0.5-wt of 279 fold. Protein B29 has a K0.5-mut/K0.5-wt of 4.4 fold. With B30 the K0.5-mut/K0.5-wt was 1.6 fold. Protein B31 has a K0.5-mut/K0.5-wt of 2.1 fold. B32 gave a K0.5-mut/K0.5-wt of 1.4 fold. In the case of B33, the K0.5-mut/K0.5-wt is reported as > 517 fold. B34 was tested, and the K0.5-mut/K0.5-wt was 396 fold. B35 was tested, and the K0.5-mut/K0.5-wt was 252 fold. In the case of B36, the K0.5-mut/K0.5-wt is reported as > 517 fold. With B37 the K0.5-mut/K0.5-wt was > 517 fold. In the case of B38, the K0.5-mut/K0.5-wt is reported as 501 fold. With B39 the K0.5-mut/K0.5-wt was > 517 fold.

The proteins below were run against plasma purified human AT-III (antithrombin III), in complex with full-length unfractionated heparin (AT-III/UFH).
B1 was tested, and the K0.5-mut/K0.5-wt (against Catalyst Biosciences WT FIXa) was > 517.

What follows are proteins tested against Factor X (FX), P00742.
Sequence of Factor X (FX), P00742 (P00742 whole entry, looked up): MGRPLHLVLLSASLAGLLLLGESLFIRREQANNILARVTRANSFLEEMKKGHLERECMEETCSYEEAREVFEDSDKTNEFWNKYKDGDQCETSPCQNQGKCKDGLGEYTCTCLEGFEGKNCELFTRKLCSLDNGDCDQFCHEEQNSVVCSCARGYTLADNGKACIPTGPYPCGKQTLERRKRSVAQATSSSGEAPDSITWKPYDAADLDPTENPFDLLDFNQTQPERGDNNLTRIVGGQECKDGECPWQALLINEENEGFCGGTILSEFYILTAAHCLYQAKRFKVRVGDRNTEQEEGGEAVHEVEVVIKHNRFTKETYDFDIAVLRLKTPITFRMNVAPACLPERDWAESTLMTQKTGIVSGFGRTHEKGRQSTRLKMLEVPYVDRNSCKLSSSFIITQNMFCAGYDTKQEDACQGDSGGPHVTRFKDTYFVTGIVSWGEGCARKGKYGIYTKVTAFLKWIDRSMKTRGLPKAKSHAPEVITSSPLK
B1 showed a KM (nM); Catalytic activity of FIXa variants (KM) of 100 nM and a kcat of FX activation by FIXa in the Xase complex (FVIIIa, PC/PS vesicles, Ca2+) of 6.4 s⁻¹. Work on B2 yielded a KM (nM); Catalytic activity of FIXa variants (KM) of 114 nM and a kcat of FX activation by FIXa in the Xase complex (FVIIIa, PC/PS vesicles, Ca2+) of 3.3 s⁻¹. B3 gave a KM (nM); Catalytic activity of FIXa variants (KM) of 96.5 nM and a kcat of FX activation by FIXa in the Xase complex (FVIIIa, PC/PS vesicles, Ca2+) of 1.8 s⁻¹. Protein B4 has a KM (nM); Catalytic activity of FIXa variants (KM) of 61.2 nM and a kcat of FX activation by FIXa in the Xase complex (FVIIIa, PC/PS vesicles, Ca2+) of 0.6 s⁻¹. Protein B5 has a KM (nM); Catalytic activity of FIXa variants (KM) of 68.5 nM and a kcat of FX activation by FIXa in the Xase complex (FVIIIa, PC/PS vesicles, Ca2+) of 0.5 s⁻¹. B6 gave a KM of 0.0474 µM, a KM (nM); Catalytic activity of FIXa variants (KM) of 62.2 nM and a kcat of FX activation by FIXa in the Xase complex (FVIIIa, PC/PS vesicles, Ca2+) of 3.4 s⁻¹. For the same protein, the kcat/KM was 9.7e+07 M⁻¹ s⁻¹. B7 was tested, and the KM was 0.0281 µM and the kcat of FX activation by FIXa in the Xase complex (FVIIIa, PC/PS vesicles, Ca2+) was 3.4 s⁻¹. B8 showed a KM of 0.0158 µM and a kcat of FX activation by FIXa in the Xase complex (FVIIIa, PC/PS vesicles, Ca2+) of 4.6 s⁻¹. Protein B9 has a KM of 0.067 µM and a kcat of FX activation by FIXa in the Xase complex (FVIIIa, PC/PS vesicles, Ca2+) of 5.4 s⁻¹. With B10 the KM was 0.0188 µM and the kcat of FX activation by FIXa in the Xase complex (FVIIIa, PC/PS vesicles, Ca2+) was 1.4 s⁻¹. With B11 the KM was 0.0565 µM and the kcat of FX activation by FIXa in the Xase complex (FVIIIa, PC/PS vesicles, Ca2+) was 1.2 s⁻¹. In the case of B12, the KM is reported as 0.0558 µM. In the case of B13, the KM is reported as 0.0443 µM. B14 gave a KM of 0.0335 µM.

From patent publication US20210230570
